Measurements published in patent US20230159934, “INSULIN RECEPTOR APTAMER AND PHARMACEUTICAL COMPOSITION FOR TREATING DIABETES COMPRISING THE SAME” (APTAMER SCIENCES INC., published 2023).

Legend:
Conditions in all cases: chain copies: 2
[1] = biological target: T1, Insulin receptor on differentiated 3T3-L1 adipocytes (UniProt P15208;P15208 P15208:28-748,P15208:753-1372); assay: cell_activity; glucose uptake in differentiated 3T3-L1 adipocytes; insulin 9.6 nM
Description: For serum deficiency, the completely differentiated 3T3-L1 adipocytes were treated with DMEM with no FBS for 3 hours and treated with a Krebs-Ringer HEPES buffer solution for 1 hour. Subsequently, the adipocytes were treated respectively with insulin or the A48m combi 3 aptamer in concentrations of 1.6 nM, 8 nM, 40 nM, 200 nM, and 1000 nM for a given time and then treated with 2-deoxy[14C]glucose (0.1 μCi/ml) for 10 minutes. The resultant was washed three times with PBS supplemented with 20 mM glucose and the cells were dissolved using a solution including 0.5 N NaOH and 1% SDS. An amount of 2-Deoxy-D-glucose absorbed into the cells was observed using a liquid scintillation counter.

[2] = biological target: T1, Insulin receptor on differentiated …; assay: cell_activity; lipolysis (glycerol release) inhibition in 3T3-L1 adipocytes; insulin 2.07 nM
Description: To identify the effect of the chemically optimized A48m (A48m combi 2 to 5) on lipolysis inhibition as insulin receptor aptamers, an amount of glycerol released in a lipolysis process was measured by using completely differentiated 3T3-L1 adipocytes.
Particularly, for serum deficiency, the completely differentiated 3T3-L1 adipocytes were treated with DMEM with no FBS for 3 hours and treated with a Krebs-Ringer HEPES buffer solution for 1 hour to induce lipolysis caused by deficiency of glucose. The adipocytes were treated respectively with insulin or the A48m combi 3 aptamer in concentrations of 0.93 nM, 2.59 nM, 7.26 nM, 20.34 nM, 56.94 nM, 159.44 nM, 446.43 nM, 1250 nM, and 3500 nM for 4 hours, and then a buffer used to treat the cells was collected. 20 μl of the collected buffer was added to a 96-well plate and 200 μl of a free glycerol reagent (Sigma F6428) was added thereto, followed by reaction at room temperature for 30 minutes. Then, concentration-dependent color development of glycerol released from the cells was measured by measuring absorbance at 540 nm.

[3] = biological target: T2, Insulin receptor (hIR) expressed on Rat-1/hIR cells (Homo sapiens, UniProt P06213;P06213 P06213:28-758,P06213:763-1382); assay: cell_activity; IR phosphorylation, 200 nM, Rat-1/hIR; Table 5 gives 0.83
T2 sequence (P06213 28-758, chain 1 of 2): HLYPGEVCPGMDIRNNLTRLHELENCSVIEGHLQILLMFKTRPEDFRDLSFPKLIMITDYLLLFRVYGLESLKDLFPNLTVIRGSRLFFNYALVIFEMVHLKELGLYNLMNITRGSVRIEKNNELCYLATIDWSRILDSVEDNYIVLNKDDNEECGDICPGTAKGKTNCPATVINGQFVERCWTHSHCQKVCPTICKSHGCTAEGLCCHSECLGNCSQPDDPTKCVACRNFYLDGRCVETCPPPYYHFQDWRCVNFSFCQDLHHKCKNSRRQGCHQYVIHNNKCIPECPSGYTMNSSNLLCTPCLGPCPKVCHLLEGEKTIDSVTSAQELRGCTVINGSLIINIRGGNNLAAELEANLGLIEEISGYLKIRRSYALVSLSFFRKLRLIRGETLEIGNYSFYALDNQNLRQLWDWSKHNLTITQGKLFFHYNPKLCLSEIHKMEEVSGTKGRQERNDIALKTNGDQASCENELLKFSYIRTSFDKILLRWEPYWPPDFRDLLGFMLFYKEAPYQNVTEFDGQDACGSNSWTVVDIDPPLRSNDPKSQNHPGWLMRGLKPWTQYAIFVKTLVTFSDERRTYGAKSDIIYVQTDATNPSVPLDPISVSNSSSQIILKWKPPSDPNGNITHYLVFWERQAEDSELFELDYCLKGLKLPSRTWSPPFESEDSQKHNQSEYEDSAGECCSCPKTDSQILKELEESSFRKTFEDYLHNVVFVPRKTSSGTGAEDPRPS
T2 sequence (P06213 763-1382, chain 2 of 2): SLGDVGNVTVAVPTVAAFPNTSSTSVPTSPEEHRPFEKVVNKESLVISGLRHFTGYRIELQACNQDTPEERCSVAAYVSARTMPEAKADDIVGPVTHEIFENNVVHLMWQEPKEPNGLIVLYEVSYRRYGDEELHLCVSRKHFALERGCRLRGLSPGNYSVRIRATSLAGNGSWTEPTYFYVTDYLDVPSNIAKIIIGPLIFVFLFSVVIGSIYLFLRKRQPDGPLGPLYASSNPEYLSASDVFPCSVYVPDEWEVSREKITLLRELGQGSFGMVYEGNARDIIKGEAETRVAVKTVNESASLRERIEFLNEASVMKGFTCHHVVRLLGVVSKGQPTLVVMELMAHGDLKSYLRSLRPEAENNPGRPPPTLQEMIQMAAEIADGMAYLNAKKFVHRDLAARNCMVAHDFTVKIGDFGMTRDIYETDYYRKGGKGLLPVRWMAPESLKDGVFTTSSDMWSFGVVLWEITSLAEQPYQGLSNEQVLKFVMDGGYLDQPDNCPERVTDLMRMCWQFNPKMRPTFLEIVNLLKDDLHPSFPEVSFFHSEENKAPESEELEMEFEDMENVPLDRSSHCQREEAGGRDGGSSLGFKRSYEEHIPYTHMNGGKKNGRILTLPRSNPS
Description: (§1) To identify the insulin receptor phosphorylation activity of the chemical variant samples of A48m prepared in Example 2-1, an experiment was performed as follows. Particularly, Rat-1/hIR cells were seeded on a 12-well plates at a density of 10⁵ cells per well and cultured overnight in a high glucose Dulbecco's modified Eagle's medium (DMEM) supplemented with 10% fetal bovine serum (FBS). The cells untreated with the aptamer samples were incubated in the DMEM not including FBS for 3 hours, washed three times with 1×PBS, and incubated in a Krebs-Ringer HEPES buffer [25 mM HEPES (pH 7.4), 120 mM NaCl, 5 mM KCl, 1.2 mM MgSO₄, 1.3 mM CaCl₂, and 1.3 mM KH₂PO₄] for 1 hour. The aptamer samples, which were the chemical variants of A48m prepared in Example 2-1, were heated at 95° C. for 5 minutes and cooled at room temperature such that a three-dimensional structure of each aptamer was reconstructed. The aptamers were dissolved in the Krebs-Ringer HEPES buffer for preparation.
(§2) The aptamer samples were added to each well of the 12-well plate and incubated for 1 hour. After 1 hour, the plate was washed three times with 1×PBS and the cells were isolated from the plate and lysed with a lysis buffer. The cell lysates were centrifuged at 4° C. at 14,000 rpm for 15 minutes to isolate proteins. […] Intensities of bands formed on the membrane were quantified via comparison with A48m.

[4] = biological target: T2, Insulin receptor (hIR) expressed on …; assay: cell_activity; IR phosphorylation, 200 nM, Rat-1/hIR
Description: as §1
The aptamer samples were added to each well of the 12-well plate and incubated for 1 hour. After 1 hour, the plate was washed three times with 1×PBS and the cells were isolated from the plate and lysed with a lysis buffer. The cell lysates were centrifuged at 4° C. at 14,000 rpm for 15 minutes to isolate proteins. The isolated samples were heated at 100° C. for 5 minutes with a 5× sample buffer and slowly cooled at room temperature to prepare western blot samples. The prepared samples were subjected to electrophoresis on 4%-12% SDS-PAGE for 1 hour and 30 minutes and transferred to a nitrocellulose membrane for 1 hour and 30 minutes. Then, the membrane was blocked at room temperature for 40 minutes in a blocking buffer solution (1×PBST, 3% skim milk) and incubated for 1 hour at room temperature with a primary antibody [anti-phosphor-IR (10C3), Santa Cruz Biotechnology or anti-β-actin (D6A8), Cell Signaling Technology] diluted in a blocking buffer at 1:500 or 1:1000. The membrane was washed three times with 1×PBS and incubated for 1 hour at room temperature with a secondary binding antibody diluted in the blocking buffer at 1:20000, and washed three times with 1×PBST. An ECL solution was sprayed onto the membrane, followed by incubation at room temperature for 1 minute and exposure to x-rays. Intensities of bands formed on the membrane were quantified via comparison with A48m.

[5] = biological target: T2, Insulin receptor (hIR) expressed on …; assay: cell_activity; IR phosphorylation reference, 200 nM, Rat-1/hIR
Description: as §1, §2

[6] = biological target: T2, Insulin receptor (hIR) expressed on …; assay: cell_activity; IR phosphorylation, 200 nM, Rat-1/hIR; Table 5 gives 0.9
Description: as §1, §2

[7] = biological target: T2, Insulin receptor (hIR) expressed on …; assay: cell_activity; IR phosphorylation, 200 nM, Rat-1/hIR; Table 5 gives 0.77
Description: as §1, §2

[8] = biological target: T2, Insulin receptor (hIR) expressed on …; assay: cell_activity; IR phosphorylation, 200 nM, Rat-1/hIR; Table 5 gives 0.95
Description: as §1, §2

T1 sequence (P15208 28-748, chain 1 of 2): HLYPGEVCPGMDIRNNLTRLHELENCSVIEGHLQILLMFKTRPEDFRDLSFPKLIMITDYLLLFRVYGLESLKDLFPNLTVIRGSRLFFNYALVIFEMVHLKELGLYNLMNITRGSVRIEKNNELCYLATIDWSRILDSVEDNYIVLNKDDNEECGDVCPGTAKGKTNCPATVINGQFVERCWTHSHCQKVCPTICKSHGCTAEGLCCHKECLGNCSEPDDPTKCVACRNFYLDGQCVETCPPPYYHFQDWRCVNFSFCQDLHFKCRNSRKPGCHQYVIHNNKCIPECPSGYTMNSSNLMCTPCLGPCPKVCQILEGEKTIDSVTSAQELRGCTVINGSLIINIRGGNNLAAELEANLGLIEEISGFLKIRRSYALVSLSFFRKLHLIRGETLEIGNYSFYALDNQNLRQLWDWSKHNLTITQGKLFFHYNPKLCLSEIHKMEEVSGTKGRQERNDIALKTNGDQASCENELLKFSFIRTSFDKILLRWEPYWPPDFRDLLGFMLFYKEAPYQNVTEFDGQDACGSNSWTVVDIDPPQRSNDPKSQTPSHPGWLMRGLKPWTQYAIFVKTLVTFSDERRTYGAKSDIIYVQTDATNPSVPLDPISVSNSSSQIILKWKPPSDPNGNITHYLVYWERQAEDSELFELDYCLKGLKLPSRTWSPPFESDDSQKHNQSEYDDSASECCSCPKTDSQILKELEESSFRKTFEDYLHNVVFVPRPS
T1 sequence (P15208 753-1372, chain 2 of 2): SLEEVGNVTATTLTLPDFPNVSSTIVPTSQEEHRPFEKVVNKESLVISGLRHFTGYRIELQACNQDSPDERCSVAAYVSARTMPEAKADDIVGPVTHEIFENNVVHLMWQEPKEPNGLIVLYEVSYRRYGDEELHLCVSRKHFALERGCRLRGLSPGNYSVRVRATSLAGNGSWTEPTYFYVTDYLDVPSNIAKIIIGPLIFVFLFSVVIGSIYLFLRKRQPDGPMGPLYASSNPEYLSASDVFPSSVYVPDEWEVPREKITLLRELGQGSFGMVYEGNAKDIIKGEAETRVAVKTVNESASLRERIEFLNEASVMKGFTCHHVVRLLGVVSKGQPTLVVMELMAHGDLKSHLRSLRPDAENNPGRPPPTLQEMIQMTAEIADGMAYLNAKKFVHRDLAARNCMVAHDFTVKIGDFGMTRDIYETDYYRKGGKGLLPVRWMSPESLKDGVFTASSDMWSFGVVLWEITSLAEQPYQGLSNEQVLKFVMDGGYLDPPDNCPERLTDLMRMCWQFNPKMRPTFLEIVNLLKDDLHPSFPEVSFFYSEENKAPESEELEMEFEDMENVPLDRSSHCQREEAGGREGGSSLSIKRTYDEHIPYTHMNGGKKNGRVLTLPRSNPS

B1: A48m combi 3 (ssDNA)
DNA: CCUGGTGTTTAGACGACCTATAGGTTAGG
modifications: CmeCmeUmeGGPGZPLPAmeGAmeCfGAmeCfCmePAmePAGGmePPAmeGmeGme-idT; me = 2'-OMe, f = 2'-F, P = naphthyl-dU, Z = benzyl-dU, L = C3 linker, 3' idT [2'-OMe at 1,2,3,11,13,16,18,20,24,27,28,29; 2'-F at 14,17; naphthyl-dU at 6,9,10,19,21,25,26; benzyl-dU at 8; C3 linker (left out) between 9 and 10; 3' idT (left out) after 29]
EC50 [1]: 16.5 nM
IC50 [2]: 11 nM

CGCCTGGTGTTCTAGACGACCTATAGGTTAGGC (ssDNA, P = naphthyl-dU; benzyl-dU at position 10) [A48m P10Z]
activity [3]: 2.7 fold of A48m

CGCCTGGTGTTCTAGACGACCTATAGGTTAGGC (ssDNA, P = naphthyl-dU; C3 linker at position 18) [A48m G18 C3-linker]
activity [4]: 1.16 fold of A48m

CGCCTGGTGTTCTAGACGACCTATAGGTTAGGC (ssDNA, P (n) = naphthyl-dU) [A48m (A48 seq 1-19)]
activity [5]: 1 fold of A48m

CGCCTGGTGTTCTAGACGACCTATAGGTTAGGC (ssDNA, P = naphthyl-dU; 2'-OMe at position 2) [A48m G2 2'-OMe]
activity [4]: 1.28 fold of A48m

CGCCTGGTGTTCTAGACGACCTATAGGTTAGGC (ssDNA, P = naphthyl-dU; benzyl-dU at position 13) [A48m P13Z]
activity [6]: 1 fold of A48m

CGCCTGGTGTTCTAGACGACCTATAGGTTAGGC (ssDNA, P = naphthyl-dU; benzyl-dU at position 29) [A48m P29Z]
activity [7]: 0.9 fold of A48m

CGCCTGGTGTTCTAGACGACCTATAGGTTAGGC (ssDNA, P = naphthyl-dU; C3 linker at position 12) [A48m C12 C3-linker]
activity [4]: 1.7 fold of A48m

CGCCTGGTGTTCTAGACGACCTATAGGTTAGGC (ssDNA, P = naphthyl-dU; 2'-F at position 27) [A48m G27 2'-F]
activity [4]: 1.11 fold of A48m

CGCCTGGTGTTCTAGACGACCTATAGGTTAGGC (ssDNA, P = naphthyl-dU; benzyl-dU at position 28) [A48m P28Z]
activity [8]: 1.09 fold of A48m
